Here are results for 1 substance from PMC4200520.

This test concerns the target XMAP-Ct, C-terminal coiled-coil fragment of XMAP215 (Xenopus) (UniProt Q9PT63). In words: SPR. As to conditions: domain or fragment.

Sequence of TD5, TACC domain fragment of XTACC3 with a deletion of helix α1 (Q9PTG8 whole entry, stated change not applied, the tested form may be a part): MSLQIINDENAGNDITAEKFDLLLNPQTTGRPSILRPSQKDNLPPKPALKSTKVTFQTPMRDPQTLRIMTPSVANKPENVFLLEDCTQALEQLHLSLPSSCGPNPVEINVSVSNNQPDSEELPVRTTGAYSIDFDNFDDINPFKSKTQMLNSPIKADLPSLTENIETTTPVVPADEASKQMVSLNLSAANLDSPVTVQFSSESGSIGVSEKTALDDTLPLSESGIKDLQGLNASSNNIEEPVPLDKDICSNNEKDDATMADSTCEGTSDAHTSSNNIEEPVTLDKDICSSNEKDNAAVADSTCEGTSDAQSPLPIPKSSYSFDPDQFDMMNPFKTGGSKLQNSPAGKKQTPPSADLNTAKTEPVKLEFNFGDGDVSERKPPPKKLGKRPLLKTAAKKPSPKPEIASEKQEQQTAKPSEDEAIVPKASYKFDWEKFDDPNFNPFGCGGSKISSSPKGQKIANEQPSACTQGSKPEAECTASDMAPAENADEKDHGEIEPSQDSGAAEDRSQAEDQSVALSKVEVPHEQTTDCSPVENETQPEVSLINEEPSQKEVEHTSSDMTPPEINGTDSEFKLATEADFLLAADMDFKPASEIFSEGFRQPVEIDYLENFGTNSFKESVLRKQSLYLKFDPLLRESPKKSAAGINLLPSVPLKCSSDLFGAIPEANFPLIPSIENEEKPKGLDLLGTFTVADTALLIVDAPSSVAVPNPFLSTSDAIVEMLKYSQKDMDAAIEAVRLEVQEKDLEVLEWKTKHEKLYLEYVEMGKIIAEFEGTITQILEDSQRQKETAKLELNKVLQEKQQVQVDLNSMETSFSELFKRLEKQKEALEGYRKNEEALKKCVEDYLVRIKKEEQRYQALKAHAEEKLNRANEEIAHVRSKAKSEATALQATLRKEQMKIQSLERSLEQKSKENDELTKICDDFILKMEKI
Sequence of XMAP-Ct, C-terminal coiled-coil fragment of XMAP215 (Xenopus) (Q9PT63 2002-2065): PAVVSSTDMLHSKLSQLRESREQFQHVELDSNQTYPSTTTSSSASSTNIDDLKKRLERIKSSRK

As a reminder, the Kd is the equilibrium constant for the complex coming apart. Read a high Kd as weaker binding. In the case of “TD5, TACC domain fragment of XTACC3 with a deletion of helix α1”, the dissociation constant (Kd) came to 4.3 µM.
